In the Human Domainome abundance scans (Beltran et al. 2025):
± gives the uncertainty stated by the source.

B1: Peripheral plasma membrane protein CASK, residues 488 to 569; numbered along this chain, O14936 (parent)
chain: VRLVQFQKNTDEPMGITLKMNELNHCIVARIMHGGMIHRQGTLHVGDEIREINGISVANQTVEQLQKMLREMRGSITFKIVP

Variants of: B1
Test: abundance fitness (aPCA) (normalised: wild type 0, dead -1); higher = more abundant; growth selection in yeast, the domain comes from the species named
Details: Homo sapiens
VRLVQFQKNTDEPMGITLHMNELNHCIVARIMHGGMIHRQGTLHVGDEIREINGISVANQTVEQLQKMLREMRGSITFKIVP [K19H] gave an abundance fitness of -0.01 ± 0.04.
Variant VRLVQFQKNTDEPMGITLKMNELNHCIVARIMHGGMIHRQGTLHVGDEIREINGISVANQTVEQLQKMLREMFGSITFKIVP [R73F] has an abundance fitness of -0.124 ± 0.059.
VRLVQFQKNTDEPMGITLKMNELNHCIVARIMHGGMIHRQGTLHVGDEIREINGISNANQTVEQLQKMLREMRGSITFKIVP [V57N] gave an abundance fitness of -0.809 ± 0.11.
In the case of VRLVQFQKNTDEPMGITLKMNELNHCIVARIMHGGMIHRQGTLHVGDEIREINGISFANQTVEQLQKMLREMRGSITFKIVP [V57F], the abundance fitness is reported as -0.42 ± 0.053.
VRLVQFQKNTDEPMGITLKMNELNHCIVARIMHGGMIHRQGTLHVGDEIREINGISPANQTVEQLQKMLREMRGSITFKIVP [V57P] gave an abundance fitness of -0.041 ± 0.027.
In the case of VRLVQFQKNTDEPMGITLKMNELNHCIVARIMHGGMIHRQGTLHVGDEIREINGISVANQTVEQEQKMLREMRGSITFKIVP [L65E], the abundance fitness is reported as -0.889 ± 0.067.
With VRLVQFQKNCDEPMGITLKMNELNHCIVARIMHGGMIHRQGTLHVGDEIREINGISVANQTVEQLQKMLREMRGSITFKIVP [T10C] the abundance fitness was 0.066 ± 0.041.
Work on VRLVQFQKNTDEPMGITLKMNELNHCIVARIMHGGMIHRQGTLHVGDEIREINGISVANQTVEQLQKMLREMRGSITFKISP [V81S] yielded an abundance fitness of -0.044 ± 0.032.
VRLVQFQKNTDEPMGITLKMNELNHCIVARIMHGGMYHRQGTLHVGDEIREINGISVANQTVEQLQKMLREMRGSITFKIVP [I37Y] showed an abundance fitness of -0.38 ± 0.056.
For VRLVQFQKNTDEPMGITLKMNELNHCQVARIMHGGMIHRQGTLHVGDEIREINGISVANQTVEQLQKMLREMRGSITFKIVP [I27Q], the abundance fitness was -0.106 ± 0.03.
Work on VRLVQFQKNTDEPMGITLKMNELNHGIVARIMHGGMIHRQGTLHVGDEIREINGISVANQTVEQLQKMLREMRGSITFKIVP [C26G] yielded an abundance fitness of -0.736 ± 0.029.
VRLVQFQKNTDEPMGITLKMNELNHCIVARIMHGGMIHRQGTLHVGDEIREINGISVANQTVEQLGKMLREMRGSITFKIVP [Q66G] gave an abundance fitness of -0.038 ± 0.021.
With VRLVQFQKNTDEPMGITLKMNELNHCIVARIMHCGMIHRQGTLHVGDEIREINGISVANQTVEQLQKMLREMRGSITFKIVP [G34C] the abundance fitness was -0.252 ± 0.064.
In the case of VRLVQFQKNTDEPMGITLKNNELNHCIVARIMHGGMIHRQGTLHVGDEIREINGISVANQTVEQLQKMLREMRGSITFKIVP [M20N], the abundance fitness is reported as -0.16 ± 0.076.
Variant VRLVQFQKNTDEPMGITLKMNELPHCIVARIMHGGMIHRQGTLHVGDEIREINGISVANQTVEQLQKMLREMRGSITFKIVP [N24P] has an abundance fitness of -0.922 ± 0.066.
Variant VRLVQFQKNTDEPMGITLKMNELLHCIVARIMHGGMIHRQGTLHVGDEIREINGISVANQTVEQLQKMLREMRGSITFKIVP [N24L] has an abundance fitness of -0.427 ± 0.026.
With VRLVQFQKNTDEPMGITLKMNELNHCIVARIMHGGMIHRQGTLHVGDEIREINGISVANQTVEQLQKMLREMRGSIGFKIVP [T77G] the abundance fitness was -0.248 ± 0.047.
Variant VRLVQFQKNTDEPMGITLKMNELNHCIVARIMHGGMIHRQGTLHVGDEIREINGKSVANQTVEQLQKMLREMRGSITFKIVP [I55K] has an abundance fitness of -0.001 ± 0.03.
With VRLVQFQKNTDEPMGITLKMNELNHCIVARIMHGGMIHRQGTLHVGDEIREINGLSVANQTVEQLQKMLREMRGSITFKIVP [I55L] the abundance fitness was -0.041 ± 0.025.
With VRLVQFQKNTDEPMGITLKMNELNHCIVARIMHGGMIHRQGTLHVGDEIREINGISVANQTVEQLQKTLREMRGSITFKIVP [M68T] the abundance fitness was -0.039 ± 0.03.
Work on VRLVQFQKNTDEPMGITLKMNELNHCIVARIMHGGMIHRQGTLHVGDEIREINGISVANQTVEQLQKCLREMRGSITFKIVP [M68C] yielded an abundance fitness of -0.026 ± 0.033.
Variant VRLVQFQKNTDEPMGITLKMNEHNHCIVARIMHGGMIHRQGTLHVGDEIREINGISVANQTVEQLQKMLREMRGSITFKIVP [L23H] has an abundance fitness of 0.028 ± 0.049.
Work on VRLVQFQKNTDEPMGITLKMNELNHCIVARIMHGRMIHRQGTLHVGDEIREINGISVANQTVEQLQKMLREMRGSITFKIVP [G35R] yielded an abundance fitness of -0.278 ± 0.024.
VRLVQFQKNTDEPMGITLKMNELNHCIVARIMHGGMIHRQGTLHVGDEIREINGISVANQTVEQLQKMLREWRGSITFKIVP [M72W] gave an abundance fitness of -0.047 ± 0.024.
VRLVQFQKNTDEPMGITLKMNELNHCIVARIMHGGMIHRQGTLHVGDEIREINGISVANQTVEQLQKMLREMRGSITHKIVP [F78H] showed an abundance fitness of -0.95 ± 0.16.
VRLVQFQKNTDEPMGITLKMNELNHCIVARIMHGGMIHIQGTLHVGDEIREINGISVANQTVEQLQKMLREMRGSITFKIVP [R39I] gave an abundance fitness of -0.297 ± 0.04.
Work on MRLVQFQKNTDEPMGITLKMNELNHCIVARIMHGGMIHRQGTLHVGDEIREINGISVANQTVEQLQKMLREMRGSITFKIVP [V1M] yielded an abundance fitness of 0.099 ± 0.045.
In the case of ARLVQFQKNTDEPMGITLKMNELNHCIVARIMHGGMIHRQGTLHVGDEIREINGISVANQTVEQLQKMLREMRGSITFKIVP [V1A], the abundance fitness is reported as -0.119 ± 0.033.
In the case of VRLCQFQKNTDEPMGITLKMNELNHCIVARIMHGGMIHRQGTLHVGDEIREINGISVANQTVEQLQKMLREMRGSITFKIVP [V4C], the abundance fitness is reported as -0.165 ± 0.04.
Work on VRLVQFQKNTDEPMGITLKMNELNHCIVARIMHGGMIHRQGTLHVGDHIREINGISVANQTVEQLQKMLREMRGSITFKIVP [E48H] yielded an abundance fitness of -0.108 ± 0.071.
In the case of VRLVQFQKNTDEPMGITLKMYELNHCIVARIMHGGMIHRQGTLHVGDEIREINGISVANQTVEQLQKMLREMRGSITFKIVP [N21Y], the abundance fitness is reported as -0.282 ± 0.041.
Variant VRLVQFQKNTDEPMGITLKMNELNHCIVARIMHGGMIHRQGTLHVGDEIREINGISVFNQTVEQLQKMLREMRGSITFKIVP [A58F] has an abundance fitness of -0.087 ± 0.057.
Work on VRLVQFQKNTDEPMGITLKMNELNHCIVARIMHGGMIHRQGTLHVGDEIREIYGISVANQTVEQLQKMLREMRGSITFKIVP [N53Y] yielded an abundance fitness of -0.525 ± 0.17.
